Source: patent US20190062396A1

Target: thyrotropin receptor (TSHR) (UniProt P16473)
Test: cell-based or functional assay

Sequence of UniProt P16473 (P16473 21-764 limits assumed): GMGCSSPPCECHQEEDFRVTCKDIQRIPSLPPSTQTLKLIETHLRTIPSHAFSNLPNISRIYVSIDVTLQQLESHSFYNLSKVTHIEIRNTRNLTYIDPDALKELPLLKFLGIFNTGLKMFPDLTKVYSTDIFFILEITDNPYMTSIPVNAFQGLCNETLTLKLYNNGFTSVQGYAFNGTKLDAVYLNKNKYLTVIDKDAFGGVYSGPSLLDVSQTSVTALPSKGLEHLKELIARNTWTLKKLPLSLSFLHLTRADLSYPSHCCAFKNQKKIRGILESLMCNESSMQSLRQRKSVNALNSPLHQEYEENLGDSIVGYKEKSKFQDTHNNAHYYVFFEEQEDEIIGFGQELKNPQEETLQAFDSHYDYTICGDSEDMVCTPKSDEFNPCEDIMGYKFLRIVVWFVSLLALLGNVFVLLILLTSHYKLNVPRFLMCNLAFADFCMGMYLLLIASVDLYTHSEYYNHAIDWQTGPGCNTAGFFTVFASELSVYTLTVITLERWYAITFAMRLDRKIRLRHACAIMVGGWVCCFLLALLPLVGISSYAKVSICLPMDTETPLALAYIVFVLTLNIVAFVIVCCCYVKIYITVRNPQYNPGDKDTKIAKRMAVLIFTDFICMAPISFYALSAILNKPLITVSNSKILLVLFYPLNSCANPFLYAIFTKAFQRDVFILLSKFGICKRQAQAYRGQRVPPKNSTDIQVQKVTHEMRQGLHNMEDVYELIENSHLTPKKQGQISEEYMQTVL

- EC50 of cAMP induction (RLU, HitHunter cAMP XS+ luminescence) in CHO-K1 cells expressing TSHR, relative to the control group (Thyrogen): 99%
Substance: recombinant human thyroid stimulating hormone (rhTSH) produced and purified by the method of the invention (from UniProt P01215 25-116; P01222 21-138) (ligand)
